Measured values from IntAct's records for PubMed 31515488.

B1: Syntaxin-3 (Homo sapiens), Q13277 (parent)
chain: MKDRLEQLKAKQLTQDDDTDAVEIAIDNTAFMDEFFSEIEETRLNIDKISEHVEEAKKLYSIILSAPIPEPKTKDDLEQLTTEIKKRANNVRNKLKSMEKHIEEDEVRSSADLRIRKSQHSVLSRKFVEVMTKYNEAQVDFRERSKGRIQRQLEITGKKTTDEELEEMLESGNPAIFTSGIIDSQISKQALSEIEGRHKDIVRLESSIKELHDMFMDIAMLVENQGEMLDNIELNVMHTVDHVEKARDETKKAVKYQSQARKKLIIIIVLVVVLLGILALIIGLSVGLN
partner: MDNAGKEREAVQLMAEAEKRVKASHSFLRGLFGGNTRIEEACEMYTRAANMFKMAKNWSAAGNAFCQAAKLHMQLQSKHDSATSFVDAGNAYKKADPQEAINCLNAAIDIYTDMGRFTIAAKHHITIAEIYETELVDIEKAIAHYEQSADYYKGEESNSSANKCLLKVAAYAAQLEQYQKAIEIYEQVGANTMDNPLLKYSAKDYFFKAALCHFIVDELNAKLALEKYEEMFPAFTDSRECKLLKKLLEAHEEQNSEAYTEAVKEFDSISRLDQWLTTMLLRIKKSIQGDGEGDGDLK
B2: Calcium-binding and coiled-coil domain-containing protein 2 (Homo sapiens), Q13137 (parent)
chain: MEETIKDPPTSAVLLDHCHFSQVIFNSVEKFYIPGGDVTCHYTFTQHFIPRRKDWIGIFRVGWKTTREYYTFMWVTLPIDLNNKSAKQQEVQFKAYYLPKDDEYYQFCYVDEDGVVRGASIPFQFRPENEEDILVVTTQGEVEEIEQHNKELCKENQELKDSCISLQKQNSDMQAELQKKQEELETLQSINKKLELKVKEQKDYWETELLQLKEQNQKMSSENEKMGIRVDQLQAQLSTQEKEMEKLVQGDQDKTEQLEQLKKENDHLFLSLTEQRKDQKKLEQTVEQMKQNETTAMKKQQELMDENFDLSKRLSENEIICNALQRQKERLEGENDLLKRENSRLLSYMGLDFNSLPYQVPTSDEGGARQNPGLAYGNPYSGIQESSSPSPLSIKKCPICKADDICDHTLEQQQMQPLCFNCPICDKIFPATEKQIFEDHVFCHSL
B3: Bcl-2-interacting killer (Homo sapiens), Q13323 (parent)
chain: MSEVRPLSRDILMETLLYEQLLEPPTMEVLGMTDSEEDLDPMEDFDSLECMEGSDALALRLACIGDEMDVSLRAPRLAQLSEVAMHSLGLAFIYDQTEDIRDVLRSFMDGFTTLKENIMRFWRSPNPGSWVSCEQVLLALLLLLALLLPLLSGGLHLLLK
partner: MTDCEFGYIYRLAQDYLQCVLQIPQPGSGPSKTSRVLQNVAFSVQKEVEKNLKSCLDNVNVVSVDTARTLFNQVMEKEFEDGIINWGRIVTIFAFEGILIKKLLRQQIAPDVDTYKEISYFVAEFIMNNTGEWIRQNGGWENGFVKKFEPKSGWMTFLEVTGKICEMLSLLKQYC
B4: UPF0488 protein C8orf33 (Homo sapiens), Q9H7E9 (parent)
chain: MAALGHLAGEAAAAPGPGTPCASRGARLPGPVSSARNPSTVCLCPEQPTCSNADSRAHPLGDEGGTASKKQKNKKKTRNRASVANGGEKASEKLAPEEVPLSAEAQAQQLAQELAWCVEQLELGLKRQKPTPKQKEQAIGAIRTLRSKRTPLPRKRQLMHSLFGDYRAQMEAEWREALRALRAAAYSAQVQPVDGATRKKSQRVCRPRSIWRAKATLDMPDEEFRFNFF

Variants of: B1
Details: with snab_human NAPB

effect of a mutation on the interaction | Variant
with no effect | MKDRLEQLKAKQLTQDDDTDAVEIAIDNTAFMDEFFSEIEETRLNIDKISEHVEEAKKLYSIILSAPIPEPKTKDDLEQLTTEIKKRANNVRNKLKSMEKHIEEDEVRSSADLRIRKSQHSVLSRKFVEVMTKYNEAQVDFRERSKGRIQRQLEITGKKTTDEELEEMLESGNPAIFTSGIIDSQISKQALSEIEGRHKDIVRLESSIKELHDMFMDIAMLVENQGEMLDNIELNVMHTVDHVEKARDETKKAVKYQSQARKKLIIIIVLVVVLLSILALIIGLSVGLN [G276S]

Variants of: B2
Details: with leg8_human LGALS8, O00214
leg8_human LGALS8, O00214, sequence (O00214 whole entry): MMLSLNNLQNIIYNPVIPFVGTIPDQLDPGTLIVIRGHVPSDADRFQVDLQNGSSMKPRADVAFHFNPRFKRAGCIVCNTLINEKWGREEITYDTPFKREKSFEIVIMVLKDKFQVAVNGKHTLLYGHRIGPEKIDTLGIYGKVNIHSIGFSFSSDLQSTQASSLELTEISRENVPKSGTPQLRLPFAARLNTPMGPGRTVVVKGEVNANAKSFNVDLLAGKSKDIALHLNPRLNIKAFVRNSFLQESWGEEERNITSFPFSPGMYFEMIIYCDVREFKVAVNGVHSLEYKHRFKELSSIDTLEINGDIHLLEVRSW

effect of a mutation on the interaction | Variant
with no effect | MEETIKDPPTSAVLLDHCHFSQVIFNSVEKFYIPGGDVTCHYTFTQHFIPRRKDWIGIFRVGWKTTREYYTFMWVTLPIDLNNKSAKQQEVQFKAYYLPKDDEYYQFCYVDEDGVVRGASIPFQFRPENEEDILVVTTQGEVEEIEQHNKELCKENQELKDSCISLQKQNSDMQAELQKKQEELETLQSINKKLELKVKEQKDYWETELLQLKEQNQKMSSKNEKMGIRVDQLQAQLSTQEKEMEKLVQGDQDKTEQLEQLKKENDHLFLSLTEQRKDQKKLEQTVEQMKQNETTAMKKQQELMDENFDLSKRLSENEIICNALQRQKERLEGENDLLKRENSRLLSYMGLDFNSLPYQVPTSDEGGARQNPGLAYGNPYSGIQESSSPSPLSIKKCPICKADDICDHTLEQQQMQPLCFNCPICDKIFPATEKQIFEDHVFCHSL [E222K]

Variants of: B2
Details: with smrd1_human SMARCD1, Q96GM5
smrd1_human SMARCD1, Q96GM5, sequence (Q96GM5 whole entry): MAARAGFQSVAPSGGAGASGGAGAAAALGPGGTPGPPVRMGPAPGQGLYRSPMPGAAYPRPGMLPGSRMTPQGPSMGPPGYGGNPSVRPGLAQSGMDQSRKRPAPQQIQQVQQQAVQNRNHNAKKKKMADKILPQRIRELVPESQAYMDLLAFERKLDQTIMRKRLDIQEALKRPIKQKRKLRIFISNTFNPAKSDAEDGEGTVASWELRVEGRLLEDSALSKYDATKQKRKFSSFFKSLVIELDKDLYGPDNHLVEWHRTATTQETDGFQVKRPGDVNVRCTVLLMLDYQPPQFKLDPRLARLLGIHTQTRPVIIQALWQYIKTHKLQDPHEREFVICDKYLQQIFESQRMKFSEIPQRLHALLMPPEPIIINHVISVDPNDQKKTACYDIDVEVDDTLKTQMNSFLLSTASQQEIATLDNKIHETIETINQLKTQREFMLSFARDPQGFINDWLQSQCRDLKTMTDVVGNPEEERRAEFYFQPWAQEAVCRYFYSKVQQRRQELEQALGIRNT

effect of a mutation on the interaction | Variant
with no effect | MEETIKDPPTSAVLLDHCHFSQVIFNSVEKFYIPGGDVTCHYTFTQHFIPRRKDWIGIFRVGWKTTREYYTFMWVTLPIDLNNKSAKQQEVQFKAYYLPKDDEYYQFCYVDEDGVVRGASIPFQFRPENEEDILVVTTQGEVEEIEQHNKELCKENQELKDSCISLQKQNSDMQAELQKKQEELETLQSINKKLELKVKEQKDYWETELLQLKEQNQKMSSKNEKMGIRVDQLQAQLSTQEKEMEKLVQGDQDKTEQLEQLKKENDHLFLSLTEQRKDQKKLEQTVEQMKQNETTAMKKQQELMDENFDLSKRLSENEIICNALQRQKERLEGENDLLKRENSRLLSYMGLDFNSLPYQVPTSDEGGARQNPGLAYGNPYSGIQESSSPSPLSIKKCPICKADDICDHTLEQQQMQPLCFNCPICDKIFPATEKQIFEDHVFCHSL [E222K]

Variants of: B2
Details: with tcl1a_human TCL1A

effect of a mutation on the interaction | Variant
with no effect | MEETIKDPPTSAVLLDHCHFSQVIFNSVEKFYIPGGDVTCHYTFTQHFIPRRKDWIGIFRVGWKTTREYYTFMWVTLPIDLNNKSAKQQEVQFKAYYLPKDDEYYQFCYVDEDGVVRGASIPFQFRPENEEDILVVTTQGEVEEIEQHNKELCKENQELKDSCISLQKQNSDMQAELQKKQEELETLQSINKKLELKVKEQKDYWETELLQLKEQNQKMSSKNEKMGIRVDQLQAQLSTQEKEMEKLVQGDQDKTEQLEQLKKENDHLFLSLTEQRKDQKKLEQTVEQMKQNETTAMKKQQELMDENFDLSKRLSENEIICNALQRQKERLEGENDLLKRENSRLLSYMGLDFNSLPYQVPTSDEGGARQNPGLAYGNPYSGIQESSSPSPLSIKKCPICKADDICDHTLEQQQMQPLCFNCPICDKIFPATEKQIFEDHVFCHSL [E222K]

Variants of: B3
Details: with BCL2A1, Q16548

effect of a mutation on the interaction | Variant
with no effect | MSEVRPLSRDILMETLLYEQLLEPPTMEVLGMTDSEEDLDPMEDFDSLECMEGSDALALRLACIGDEMEVSLRAPRLAQLSEVAMHSLGLAFIYDQTEDIRDVLRSFMDGFTTLKENIMRFWRSPNPGSWVSCEQVLLALLLLLALLLPLLSGGLHLLLK

Variants of: B4
Details: with ldoc1_human LDOC1, O95751
ldoc1_human LDOC1, O95751, sequence (O95751 whole entry): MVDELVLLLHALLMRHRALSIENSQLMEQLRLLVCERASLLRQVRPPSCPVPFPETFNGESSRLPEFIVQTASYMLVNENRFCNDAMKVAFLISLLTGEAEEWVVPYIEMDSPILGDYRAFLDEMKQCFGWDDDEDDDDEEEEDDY

effect of a mutation on the interaction | Variant
with no effect | G25R

Variants of: B4
Details: with cep70_human CEP70, Q8NHQ1
cep70_human CEP70, Q8NHQ1, sequence (Q8NHQ1 whole entry): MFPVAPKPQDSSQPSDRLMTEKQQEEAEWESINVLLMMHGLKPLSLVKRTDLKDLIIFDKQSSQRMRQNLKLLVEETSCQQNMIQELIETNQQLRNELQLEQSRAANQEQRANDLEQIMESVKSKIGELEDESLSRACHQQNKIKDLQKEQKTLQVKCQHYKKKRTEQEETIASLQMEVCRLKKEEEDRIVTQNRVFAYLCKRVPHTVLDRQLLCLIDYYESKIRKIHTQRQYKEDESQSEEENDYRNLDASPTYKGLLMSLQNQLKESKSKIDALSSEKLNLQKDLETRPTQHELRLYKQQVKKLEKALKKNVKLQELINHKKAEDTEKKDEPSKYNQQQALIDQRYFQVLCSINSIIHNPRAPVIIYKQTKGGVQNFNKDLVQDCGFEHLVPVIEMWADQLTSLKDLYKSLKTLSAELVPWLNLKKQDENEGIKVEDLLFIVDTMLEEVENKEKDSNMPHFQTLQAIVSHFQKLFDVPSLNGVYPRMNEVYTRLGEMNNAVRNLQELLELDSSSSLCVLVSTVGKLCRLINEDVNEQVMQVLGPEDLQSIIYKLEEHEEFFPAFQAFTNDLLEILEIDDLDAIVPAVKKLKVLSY

effect of a mutation on the interaction | Variant
with no effect | G25R
